Reference: patent US20170165365A1 (SYMPHOGEN A S, published 2017)
Changes are numbered by the printed parent chain.

Experiments:
[1] = target: T1, mouse EGFR antigen (mouse, UniProt Q01279 25-647, limits assumed); experiment: ELISA, coated mu EGFR
T1 construct: In-house antigen coated for ELISA; also called mouse antigen; murine EGFR
Procedure: (§1) Antibody-antigen binding was measured by ELISA with coated antigens. Human antigens were obtained from Sino Biologicals. All other antigens were produced in-house by transient expression in CHO or HEK293 cells. Chimeric and humanized antibodies, as well as an isotype control antibody, were incubated with the coated antigens at different concentrations. After wash, bound antibodies were detected by HRP-(horse radish peroxidase)-conjugated secondary antibodies.

[2] = target: T2, mouse HER3 antigen (mouse, UniProt Q61526 20-641, limits assumed); experiment: ELISA, coated mu HER3
T2 construct: In-house antigen coated for ELISA; also called mouse antigen; murine HER3
T2 sequence (Q61526 20-641 limits assumed): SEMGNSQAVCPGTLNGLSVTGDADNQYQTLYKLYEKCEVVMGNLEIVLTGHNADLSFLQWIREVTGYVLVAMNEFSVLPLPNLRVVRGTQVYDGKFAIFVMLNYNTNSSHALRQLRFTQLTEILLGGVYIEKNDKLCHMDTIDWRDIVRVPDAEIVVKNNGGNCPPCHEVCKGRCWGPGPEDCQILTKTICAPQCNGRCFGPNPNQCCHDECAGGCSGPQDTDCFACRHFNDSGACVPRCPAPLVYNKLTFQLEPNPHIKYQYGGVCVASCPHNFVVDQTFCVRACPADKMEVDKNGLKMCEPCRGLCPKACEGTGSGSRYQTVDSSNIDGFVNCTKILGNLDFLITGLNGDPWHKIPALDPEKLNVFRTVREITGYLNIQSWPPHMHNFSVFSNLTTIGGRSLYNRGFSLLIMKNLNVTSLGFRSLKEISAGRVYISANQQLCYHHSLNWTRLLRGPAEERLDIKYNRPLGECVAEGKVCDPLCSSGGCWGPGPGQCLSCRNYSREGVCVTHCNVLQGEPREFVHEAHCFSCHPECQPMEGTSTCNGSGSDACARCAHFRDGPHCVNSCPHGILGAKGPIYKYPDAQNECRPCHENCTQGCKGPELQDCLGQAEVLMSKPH
Procedure: as §1

[3] = target: T3, murine HER4 antigen (mouse, UniProt Q61527 26-652, limits assumed); experiment: ELISA, coated mu HER4
T3 construct: In-house antigen coated for ELISA; also called mouse HER4
T3 sequence (looked up): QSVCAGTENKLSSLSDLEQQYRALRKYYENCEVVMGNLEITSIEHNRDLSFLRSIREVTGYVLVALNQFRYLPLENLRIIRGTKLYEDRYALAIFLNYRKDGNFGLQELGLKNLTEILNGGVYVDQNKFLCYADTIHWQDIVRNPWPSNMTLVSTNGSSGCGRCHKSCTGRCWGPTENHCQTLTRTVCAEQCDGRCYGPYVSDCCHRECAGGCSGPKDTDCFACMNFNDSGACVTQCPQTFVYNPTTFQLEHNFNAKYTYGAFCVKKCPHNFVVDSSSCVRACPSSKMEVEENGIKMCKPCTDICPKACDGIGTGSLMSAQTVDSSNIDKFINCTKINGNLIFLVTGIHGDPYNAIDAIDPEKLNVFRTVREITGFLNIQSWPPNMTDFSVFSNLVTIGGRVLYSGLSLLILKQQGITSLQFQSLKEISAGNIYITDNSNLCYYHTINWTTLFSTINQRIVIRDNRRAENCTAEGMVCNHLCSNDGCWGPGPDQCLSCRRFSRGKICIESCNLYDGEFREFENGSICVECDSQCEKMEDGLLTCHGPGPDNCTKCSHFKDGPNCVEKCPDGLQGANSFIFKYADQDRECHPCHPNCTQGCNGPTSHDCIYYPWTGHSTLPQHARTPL
Procedure: as §1

[4] = target: T4, human HER2 antigen (Sino Biologicals) (human, UniProt P04626 23-652); experiment: ELISA, coated hu HER2
T4 construct: Bought soluble antigen; also called human antigen
Procedure: as §1

[5] = target: T5, cynomolgus HER3 antigen (cynomolgus monkey, UniProt G7PIG5 20-643); experiment: ELISA, coated cy HER3
T5 construct: In-house antigen; also called cynomolgus antigen
T5 sequence (G7PIG5 entry or part of it): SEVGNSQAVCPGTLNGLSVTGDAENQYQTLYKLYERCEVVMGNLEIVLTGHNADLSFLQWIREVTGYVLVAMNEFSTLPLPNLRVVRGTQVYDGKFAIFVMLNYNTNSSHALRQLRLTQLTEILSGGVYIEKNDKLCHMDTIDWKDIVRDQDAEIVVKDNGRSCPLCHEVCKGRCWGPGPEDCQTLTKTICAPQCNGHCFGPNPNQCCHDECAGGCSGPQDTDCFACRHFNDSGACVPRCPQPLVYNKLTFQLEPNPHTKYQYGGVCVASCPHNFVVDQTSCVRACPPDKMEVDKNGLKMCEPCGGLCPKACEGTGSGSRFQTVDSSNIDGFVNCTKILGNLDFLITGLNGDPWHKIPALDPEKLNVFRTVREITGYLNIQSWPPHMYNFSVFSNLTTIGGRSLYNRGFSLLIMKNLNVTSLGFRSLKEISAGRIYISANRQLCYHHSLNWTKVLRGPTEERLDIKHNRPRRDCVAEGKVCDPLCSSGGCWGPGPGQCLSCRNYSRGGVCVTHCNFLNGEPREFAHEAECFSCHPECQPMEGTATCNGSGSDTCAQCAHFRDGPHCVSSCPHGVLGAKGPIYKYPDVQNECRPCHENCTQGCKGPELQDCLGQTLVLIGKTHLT
Procedure: as §1

[6] = target: T6, human HER4 antigen (human, UniProt Q15303 26-649, limits assumed); experiment: ELISA, coated hu HER4
T6 construct: Antigen coated for ELISA
T6 sequence (looked up): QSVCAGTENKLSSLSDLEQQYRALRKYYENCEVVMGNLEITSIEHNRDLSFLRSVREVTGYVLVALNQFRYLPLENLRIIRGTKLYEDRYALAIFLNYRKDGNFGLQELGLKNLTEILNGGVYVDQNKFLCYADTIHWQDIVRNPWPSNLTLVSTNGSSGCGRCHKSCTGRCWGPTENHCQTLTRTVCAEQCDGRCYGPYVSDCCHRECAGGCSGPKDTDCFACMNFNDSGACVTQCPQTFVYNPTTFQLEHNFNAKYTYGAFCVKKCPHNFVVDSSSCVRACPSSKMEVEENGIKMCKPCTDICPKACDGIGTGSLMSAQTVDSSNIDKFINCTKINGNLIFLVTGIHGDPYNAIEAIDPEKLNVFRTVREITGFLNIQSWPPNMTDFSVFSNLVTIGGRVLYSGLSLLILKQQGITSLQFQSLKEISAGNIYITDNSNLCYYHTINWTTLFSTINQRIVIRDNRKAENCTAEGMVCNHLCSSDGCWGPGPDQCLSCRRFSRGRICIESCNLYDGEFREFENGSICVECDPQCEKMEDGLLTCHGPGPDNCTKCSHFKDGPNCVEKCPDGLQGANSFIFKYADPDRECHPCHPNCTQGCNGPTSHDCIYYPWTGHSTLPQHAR
Procedure: as §1

[7] = target: T7, human HER3 antigen (Sino Biologicals) (human, UniProt P21860 20-643); experiment: ELISA, coated hu HER3
T7 construct: Bought soluble antigen; also called human antigen
Procedure: as §1

[8] = target: T8, mouse HER2 antigen (mouse, UniProt P70424 23-653, limits assumed); experiment: ELISA, coated mu HER2
T8 construct: In-house antigen coated for ELISA; also called mouse antigen; murine HER2
T8 sequence (P70424 23-653 limits assumed): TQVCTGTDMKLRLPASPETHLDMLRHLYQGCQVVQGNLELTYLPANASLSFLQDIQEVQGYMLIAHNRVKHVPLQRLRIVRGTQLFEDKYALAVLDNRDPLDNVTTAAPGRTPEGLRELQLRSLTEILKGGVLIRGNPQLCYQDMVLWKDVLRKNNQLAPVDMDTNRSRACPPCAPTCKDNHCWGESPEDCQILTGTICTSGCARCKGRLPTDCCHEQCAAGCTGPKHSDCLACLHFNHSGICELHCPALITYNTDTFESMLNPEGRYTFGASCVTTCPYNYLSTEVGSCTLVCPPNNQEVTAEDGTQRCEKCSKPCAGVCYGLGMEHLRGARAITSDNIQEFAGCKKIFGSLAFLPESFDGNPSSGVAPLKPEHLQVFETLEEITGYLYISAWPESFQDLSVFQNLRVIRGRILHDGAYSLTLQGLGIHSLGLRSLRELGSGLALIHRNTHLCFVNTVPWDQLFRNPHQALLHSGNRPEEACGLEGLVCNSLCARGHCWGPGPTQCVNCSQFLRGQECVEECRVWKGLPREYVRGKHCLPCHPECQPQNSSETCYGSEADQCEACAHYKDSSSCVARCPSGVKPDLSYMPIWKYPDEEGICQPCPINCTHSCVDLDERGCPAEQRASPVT
Procedure: as §1

[9] = target: T7, human HER3 antigen (Sino Biologicals); experiment: SPR (ProteOn XPR36), IgG captured by anti-human Fc, soluble monovalent antigen, 1:1 fit
Procedure: (§2) Kinetic binding analysis of the purified humanized variants was performed on a ProteOn™ XPR36 biosensor (BioRad, USA) employing an IgG capture assay as described by Canziani et al. (Anal. Biochem. (2004) 325:301-307) that allows for measurement of antibody affinities of whole IgG molecules against soluble antigen under monovalent conditions. Briefly, approximately 5000 resonance units (RU) of a monoclonal mouse anti-human IgG Fc antibody (GE Healthcare, Denmark) was conjugated to a GLC chip surface (BioRad, USA) according to the manufacturer's instructions, followed by capture of individual antibodies of the invention or a negative control on the anti-Fc sensor surface. […] Next, 250 μl monovalent antigen (Sino Biologicals) was injected at a flow rate of 50 μl/min in serial threefold dilutions from 100 nM stock to generate response curves. The chip surface was regenerated between cycles by stripping the captured antibody/antigen complexes off the surface with a 10-second injection of 3 M MgCl₂ (GE Healthcare, Denmark) repeated three times. Finally, binding responses were fitted to a Langmuir 1:1 binding model for calculation of the on-rate (kon or ka), off-rate (koff or kd) and affinity (KD) constants using double referencing.

[10] = target: T5, cynomolgus HER3 antigen; experiment: as above
Procedure: as §2

[11] = target: T9, cynomolgus EGFR antigen (cynomolgus monkey, UniProt A0A2K5WK39 25-645); experiment: ELISA, coated cy EGFR
T9 construct: In-house antigen; also called cynomolgus antigen
Procedure: as §1

[12] = target: T10, human EGFR antigen (Sino Biologicals) (human, UniProt P00533 25-645); experiment: ELISA, coated hu EGFR
T10 construct: Bought soluble antigen; also called human antigen
Procedure: as §1

B1: humanized anti-EGFR antibody 10460 (antibody, V domains shown)
VH: EVQLVESGGGLVQPGGSLRLSCAASGFAFSYSDMSWVRQAPGKRLEWVSYMSSAGDVTFYSDTVKGRFTISRDNAKNSLYLQVNSLRAEDTAVYYCVRHRDVAIDYWGQGTTVTVSS
VL: DVVMTQSPLSLPVTLGQPASISCRSSQSLVHSNGNTYLHWYQQRPGQSPRLLIYKVSNRFSGVPDRFSGSGSGTDFTLKISRVEAEDVGVYFCSQSTHVPTFGGGTKLEIK
binding result [1]: no binding (tested: 40 nM)
binding result [2]: no binding (tested: 40 nM)
binding result [3]: no binding (tested: 40 nM)
binding result [4]: no binding (tested: 40 nM)
binding result [5]: no binding (tested: 40 nM)
binding result [6]: no binding (tested: 40 nM)
binding result [7]: no binding (tested: 40 nM)
binding result [8]: no binding (tested: 40 nM)

B2: chimeric anti-HER3 antibody 5038 (antibody, V domains shown)
VH: EVKLVESGPGLVKPSQSLSLTCSVTGYSITSGFYWTWIRQFPGNKLEWMGFISYDGSNNYNPSLKNRISITRDTSKNQFFLKLNSVTTEDTATYYCARGGGYYGNLFDYWGQGTTLTVS
VL: DIVMTQTTSSLSASLGDRVTISCRPSQDISNYVNWFQQKPGGTVKLLIFHTSRLHSGVPSRFSGSGSGTDYSLTISTLEQEDIAIYFCQQGITLPWTFGGGTKLEIKR
notes: light chain entry is full length
binding result [1]: no binding (tested: 40 nM)
binding result [2]: no binding (tested: 40 nM)
Kd [9]: 1.6 nM
koff [9]: 0.00048 s⁻¹
kon [9]: 300000 M⁻¹ s⁻¹
Kd [10]: 0.89 nM
koff [10]: 0.00041 s⁻¹
kon [10]: 460000 M⁻¹ s⁻¹
binding result [3]: no binding (tested: 40 nM)
binding result [4]: no binding (tested: 40 nM)
binding result [6]: no binding (tested: 40 nM)
binding result [11]: no binding (tested: 40 nM)
binding result [8]: no binding (tested: 40 nM)
binding result [12]: no binding (tested: 40 nM)

B3: chimeric anti-HER3 antibody 5082 (antibody, V domains shown)
VH: EVQLKESGPGLVKPSQSLSLTCSVTGYSITSAYYWNWIRQFPGNKVEWMGYIGYDGRNTYNPSLKNRISITRDTSKNQFFLKLNSLTTEDTATYYCSREGDYGYSDYWGQGTTLTVS
VL: DIVMTQATSSLSASLGDRVTVSCRASQDINNYLNWYQQKPDGTVKLLIYYTSRLQSGVPSRFSGSGSGIDYSLTISNLEQEDFVTYFCQQSETLPWTFGGGTKLELKR
notes: as for B2
binding result [1]: no binding (tested: 40 nM)
binding result [2]: no binding (tested: 40 nM)
Kd [9]: 0.08 nM
koff [9]: 7.3e-05 s⁻¹
kon [9]: 910000 M⁻¹ s⁻¹
Kd [10]: 0.098 nM
koff [10]: 0.00016 s⁻¹
kon [10]: 1.7e+06 M⁻¹ s⁻¹
binding result [3]: no binding (tested: 40 nM)
binding result [4]: no binding (tested: 40 nM)
binding result [6]: no binding (tested: 40 nM)
binding result [11]: no binding (tested: 40 nM)
binding result [8]: no binding (tested: 40 nM)
binding result [12]: no binding (tested: 40 nM)

B4: humanized anti-HER3 antibody 10738 (antibody, V domains shown)
VH: QVQLQESGPGLVKPSQTLSLTCTVSGYSITSGFYWTWIRQHPGKGLEWMGFISYSGSNNYNPSLKNRITISVDTSKNQFSLKLSSVTAADTAVYYCARGGGYYGNLFDYWGQGTLVTVSS
VL: DIQMTQSPSSLSASVGDRVTITCRPSQDISNYVNWFQQKPGKAVKLLIFHTSRLHSGVPSRFSGSGSGTDFTFTISSLQPEDIAIYYCQQGITLPWTFGQGTKVEIK
binding result [1]: no binding (tested: 40 nM)
binding result [2]: no binding (tested: 40 nM)
Kd [10]: 0.54 nM
binding result [3]: no binding (tested: 40 nM)
binding result [4]: no binding (tested: 40 nM)
binding result [6]: no binding (tested: 40 nM)
binding result [11]: no binding (tested: 40 nM)
binding result [8]: no binding (tested: 40 nM)
binding result [12]: no binding (tested: 40 nM)

B5: humanized anti-HER3 antibody 10810 (antibody, V domains shown)
VH: B4 VH with K44N, M49I, I68V, V93T
VL: B4 VL with V44P, F73L, I85T
binding result [1]: no binding (tested: 40 nM)
binding result [2]: no binding (tested: 40 nM)
Kd [9]: 1.1 nM
koff [9]: 0.0002 s⁻¹
kon [9]: 190000 M⁻¹ s⁻¹
Kd [10]: 0.71 nM
koff [10]: 0.00034 s⁻¹
kon [10]: 470000 M⁻¹ s⁻¹
binding result [3]: no binding (tested: 40 nM)
binding result [4]: no binding (tested: 40 nM)
binding result [6]: no binding (tested: 40 nM)
binding result [11]: no binding (tested: 40 nM)
binding result [8]: no binding (tested: 40 nM)
binding result [12]: no binding (tested: 40 nM)

B6: humanized anti-HER3 antibody 11006 (antibody, V domains shown)
VH: QVQLQESGPGLVKPSQTLSLTCTVSGYSITSAYYWNWIRQHPGKGVEWMGYIGYSGRNTYNPSLKNRVTISRDTSKNQFSLKLSSVTAADTAVYYCSREGDYGYSDYWGQGTLVTVSS
VL: DIQMTQSPSSLSASVGDRVTVTCRASQDTNNYLNWYQQKPGKAVKLLIYYTSRLQSGVPSRFSGSGSGTDFTLTISSLQPEDFATYFCQQSETLPWTFGQGTKVEIK
binding result [1]: no binding (tested: 40 nM)
binding result [2]: no binding (tested: 40 nM)
koff [9]: < 2e-06 s⁻¹
kon [9]: 740000 M⁻¹ s⁻¹
Kd [10]: 0.059 nM
koff [10]: 8.7e-05 s⁻¹
kon [10]: 1.5e+06 M⁻¹ s⁻¹
binding result [3]: no binding (tested: 40 nM)
binding result [4]: no binding (tested: 40 nM)
binding result [6]: no binding (tested: 40 nM)
binding result [11]: no binding (tested: 40 nM)
binding result [8]: no binding (tested: 40 nM)
binding result [12]: no binding (tested: 40 nM)
